Experimental data: US20230070339A1 (UNIVERSITY OF SOUTHAMPTON, published 2023)

Molecular target: T1, LILRB3-hFc recombinant protein (human, UniProt O75022 24-443)
T1 construct: extracellular domain; also called LILRB-Fc; the extracellular LILRB3 domain with a human Fc tag; not shown: human Fc tag
Test: SPR (Biacore T100), LILRB3-hFc amine-coupled on CM5 chip, mAb as analyte, 1:1 model
Experimental: SPR was performed with the Biacore T100 (GE Healthcare, UK) as per the manufacturer's instructions. LILRB3-hFc recombinant protein (the extracellular LILRB3 domain with a human Fc tag) was used as the ligand and immobilized by amine coupling onto a series S sensor chip (CM5). Various LILRB3 mAb were used as “analytes” and flowed across the chip, and SPR measured.

T1 sequence (O75022 24-443): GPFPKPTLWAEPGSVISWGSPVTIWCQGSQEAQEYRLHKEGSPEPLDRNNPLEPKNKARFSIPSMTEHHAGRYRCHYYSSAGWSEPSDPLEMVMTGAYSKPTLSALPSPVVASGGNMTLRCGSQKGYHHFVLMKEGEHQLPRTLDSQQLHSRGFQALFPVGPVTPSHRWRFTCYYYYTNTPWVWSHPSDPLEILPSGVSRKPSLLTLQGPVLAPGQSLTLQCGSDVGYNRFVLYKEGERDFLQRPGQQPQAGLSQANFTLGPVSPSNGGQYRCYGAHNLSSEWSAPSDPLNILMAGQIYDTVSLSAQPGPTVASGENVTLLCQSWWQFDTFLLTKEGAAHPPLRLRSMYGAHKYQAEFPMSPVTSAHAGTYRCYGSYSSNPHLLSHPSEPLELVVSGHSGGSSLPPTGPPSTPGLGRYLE

B1: LILRB3 mAb clone A16 (antibody, human IgG1, V domains shown)
VH: EVQLLESGGGLVQPGGSLRLSCAASGFTFSSYWMSWVRQAPGKGLEWVSRINTHGTNIDYADSVKGRFTISRDNSKNTLYLQMNSLRAEDTAVYYCVGVAGTGWFDPWGQGTLVTVSS
VL: QSVLTQPPSASGTPGQRVTISCTGSSSNIGAGYDVHWYQQLPGTAPKLLIYGNNNRPSGVPDRFSGSKSGTSASLAISGLRSEDEADYYCQSYDTSLSGSVFGGGTKLTVLG
notes: Fully human IgG1, full-length IgG; only variable domains tied to the clone; APC-labelled for staining of primary cells; deglycosylated in the T cell assay
  Kd: 0.816 nM
